Reference: the nanobody polyreactivity screen of Harvey et al. (2022)

Assay: yeast display, Sf9 membrane polyspecificity reagent, FACS + sequencing; frameworks hold sequencing errors
Outline: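 A synthetic nanobody library was expressed on Saccharomyces cerevisiae BJ5465 by galactose induction for 36–48 hours. The library was stained for 1 hour at 4 °C with 10% biotinylated, detergent-solubilized Sf9 membrane reagent and enriched with streptavidin microbeads before FACS. Low and high (top ~1%) gates were set on anti-HA fluorescence for expression and streptavidin fluorescence for reagent binding, and each polyreactivity label reflects the gate of origin.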

Sequence | polyreactivity (PSR sort gate)
QVQLVESGGGLVQAGGSLRLSCAASGSIFYFNAMGWYRQAPGKERELVAAITYSGGSTYYADSVKGRFTISRDNAKNTVYLQMNSLKPEDTAVYYCAAERRTFPLRNFDYWGQGTQVTVLS | low polyreactivity
QVQLVESGGGLVQAGGSLRLSCAASGFIFDGNAMGWYRQAPGKERELVAAIRSGGRPTYAPSVKGRFTSSRDNAKNTVDLQMNSLNPEDTAVYYCAARSIYPYYYRRDNRYYYWGQGTQVTVSS | high polyreactivity
QVQLVESGGGLVQAGGSLRLSCAASGSIFESYAMGWYRQAPGKERELVADITYDGGITYYADSVKGRFTISRDNAKNTVYLQMNSLKPEDTAVYYCATEYRYWQSDYSTYFPYDYWGQGTQVTVSS | low polyreactivity
QVQLVESGGGLVQAGGSLRLSCAASGRIFNEYGMGWYRQAPGKERELVAAITWGGGSTYYADSVKGRFTISRDNAKNTVYVQMNSLKPEDTAVYYCNAVSERPIPWYYYWGQGTQVTVSS | low polyreactivity
QVQLVESGGGLVQAGGSLRLSCAASGRIFDYYAMGWYRQAPGKERELVAAISSSVGNTYYADSVKGRFTISRDNAKNTVYLQMNSLKPEDTAVYYFADYSYVRSSYEVEDDYWGQGTQVTVSS | low polyreactivity
QVQLVESGGGLVQAGGSLRLSCAASGSTFAPNAMGWYRQAPGKERELVAAIRFDTGSTYYADSVKGRFTISRDNAKNTVYLQMNSLKPEDTAVYYCAAYNHYLSESDYWGQGTQVTVSS | low polyreactivity
QVQLVDSGGGLVQAGGSLRVSCAASGSILPLNAMGWYRQGPGKERELVADISWSGGDTYYADSVKGRFTISRDNAKNTVYLQMNSLKPEDTSVYYCAADLHTELYKMDYWGQGTQVTVSS | low polyreactivity
QVQLVESGGGLVQAGGSLRLSCAASGRIWWNAMGWYRPAPGNETELVAAIRWSGGITRYADSVKGRFTISRDNAKNTVDLQMHSLKPEDTAVYYCAARLGGSIRSKFDYWGQGTQVTVSS | high polyreactivity
QVQIVESGGGLVQAGGSLRLSCAASGGIFAVNAMGWYRQAPGKERELVASITRTGGSTSYEDSVKGRFTISRDNAKNTVYLQMNSLKPEDTAVYYCAAGWQVVLSTNGMDYWGQGTQVTVSS | high polyreactivity
QVQLVESGGGLVQAGGSLRLSCAASGSTFLVYAMGWYRQAPGKERELVAVIDNGGDTYYADSVKGRFTISRDNAKNTVYLQMNSLKPEDTEVYYCAADMSYLGYWEYDSWGQGTQVTVSS | low polyreactivity
QVQLVESGGALVHAGGSLRLSCAASGSILKTYAMGWYIQAPGKEREFVAAMSSGGSTYYADSVKGRFTISRDNAKNTVYLQMNSLKPEDTAVYYCAADPWGDFVSFASYYYWGQGTQVTVSS | low polyreactivity
PVQLVESGGGLVQAGGSLRLSCAASGFTFSYNDMGWYRQAPGKERELVAAITSTGGTYYADSVKGRFTISRDNAKNTVYLQMNSLKPEDTAVYYCAADRIGGPGSYLYDYWGQGTQVTVSS | low polyreactivity
QVQLVESGGGLVQAGGSLRLSCAASGFTFAYYAMGWYRQAAGKERELVAAITVSGASTYYADSVKGRFTISRDNAKNTDYLQMNRLKPEETAVYYCARYYAIVSGYYDDGYWGQGTQVTVSS | high polyreactivity
PVQLVESGGGLVQAGGSLRLSCAASGSIFGVNDMGWYIQGAGKERELVAGINQGGGSTYYADSVKGRFTISRDIAKNTVYLQMNSLKPEDTAVYYCAAVRYVLRSPARYGYWGQGTQVTVSS | low polyreactivity
QVQLVESGGGLVQAGGSLRLSCAASGTFVTYMGWYRQAPGKERELVAAIRNGGSTNYADSVKGRFTISRDNAKNTVYLQMNSLKPEDTAVYYCAARVTYSRGYRGGSRTKYDYWGQGTQVTVSS | low polyreactivity
QVQLVESGGGLVQAGGSLRLSCAASGIIFYYNAMGWYRQAPGKERELVAAIDDRGDSTYYADSVKGRFTISRDNAKNTVYLQMNSLKPEDTAVYYCAARDRYLYFDAMDYWGQGTLVTVSS | low polyreactivity
QVQLVESGGGLVQAGGSIRLSCAASGFIFGGYAMGWYRQAPGKERELVAAITRSGGSTYYADSVKGRFTISRDNAKTTVYFQMNSLKPEDTAVYYCAAVPYRKHSYPFRLNYWGQGTQVTVSS | high polyreactivity
